Experimental data as given in paper PMC5595328.

Columns and labels:
[1] = system: VarR (Vibrio cholerae O1 biovar El Tor N16961); experiment: competition; conditions: 50 mM Tris-HCl pH 7.5, 5 mM EDTA, 1 mM DTT, 100 ug/ml BSA, 5% glycerol, on ice 10 min; 4% polyacrylamide gel
[2] = biological target: VarF ATPase subunit of the VarDEF ABC transporter (Vibrio cholerae (strain CVD101 chromosomal DNA)); experiment: SEC; Superdex200 PrepGrade HiLoad 16/60, 20 mM Tris-HCl pH 8.25, 50 mM NaCl, 10% glycerol, 1 ml/minute; Mr from a calibration curve of standards
[3] = biological target: VarG metallo-β-lactamase (Vibrio cholerae (strain CVD101 chromosomal DNA)); experiment: AUC
[4] = biological target: VarG metallo-β-lactamase (Vibrio cholerae (strain CVD101 chromosomal DNA)); experiment: SEC; Superdex200 PrepGrade HiLoad 16/60, 20 mM Tris-HCl pH 8.25, 50 mM NaCl, 10% glycerol, 1 ml/minute; Mr from a calibration curve of standards
[5] = biological target: VarG metallo-β-lactamase (Vibrio cholerae (strain CVD101 chromosomal DNA)); experiment: intact protein ESI Q-TOF mass spectrometry; putative dimer peak from SEC infused directly, positive ion mode, MaxEnt1 deconvolution; 10 μg/mL in the methods, 50 μg/mL in the legend
[6] = biological target: VarG metallo-β-lactamase (Vibrio cholerae (strain CVD101 chromosomal DNA)); experiment: AUC; sedimentation velocity, 42,000 rpm, 20°C, 280 nm, SEDFIT c(s, fr) and c(s, M)

For 30 bp varR-varG IR, the binding signal [1] was 1 ng.

“VarF ATPase subunit of the VarDEF ABC transporter (enzyme)” showed a stoichiometry N [2] of 2.

Substance VarG metallo-β-lactamase (enzyme) has a stoichiometry N [3] of 2, a stoichiometry N [4] of 2 and a stoichiometry N [5] of 2. For the same substance, the stoichiometry N [6] was 2.
